Test results from patent US20040039175.

Tested on: HIV-AB-KOX (synthetic construct)
Assay: cell_activity
Settings: LTR-luciferase, Jurkat, Tat+PMA+PHA

Sequence: AGCTTTCTACAAGGGACTTTCCGCTGGGGACTTTCCAGGGAGGCGTGGCCTGGGCGGGACTGGGGAGTGGCGTCCCTCAGATGCTGCATATAAGCAGCTGCTTTTTGCCTGTACTGGGTCTCTCTGGTTAGACCAGATCTGAGCCTGGGAGCTCTCTGGCTAACTAGGGAACCC (double strand) [HIV-1 LTR reporter]
- activity: 96 % inhibition
